Experimental findings from US20220389113A1, “BINDING PROTEINS TO CUB DOMAIN-CONTAINING PROTEIN (CDCP1)” (COMMONWEALTH SCIENTIFIC AND INDUSTRIAL RESEARCH ORGANISATION, priority 2019, published 2022) are described below.

Experiment [1] has as its system p-CDCP1-Y734 in HEY cells. The experiment in a line: Western blot of CDCP1-Y734 and Src-Y416 phosphorylation in HEY cells. The class given is cell-based, human. The conditions noted are these: 5 μg/ml. As to the method:
Cells were biotinylated (4° C., 1 h) with cell-impermeant EZ-link NHS-SS Biotin (1.22 mg/ml; Thermo) then PBS washed and lysed in buffer containing 20 mM HEPES, 150 mM NaCl, 1 mM EDTA, 1% Triton X-100, 1×Complete protease inhibitor cocktail (PIC) and phosphatase inhibitors (2 mM Na3VO4, 10 mM NaF). After centrifugation the supernatant was incubated (15 minutes, 4° C.) with ImmunoPure immobilized streptavidin beads (Thermo). After pelleting, the supernatant containing intracellular proteins was transferred to a separate tube, and the beads washed in lysis buffer containing PIC and phosphatase inhibitors. Lysates and proteins separated by cell surface biotinylation (40 μg/lane) were examined by Western blot analysis as described (He Y, et al., (2016) Oncogene. 35(4):468-78).
Since Src tyrosine phosphorylation is important in CDCP1-mediated signal transduction (Casar B, et al., (2012) Oncogene. 31(35):3924-38), the inventors next examined this in antibody induced processing of CDCP1. […] Live-cell images of the four cell lines were analysed to determine the distance moved (track length) by individual CDCP1^GFP positive puncta during mAb-induced internalization (FIG. 5C, left). […]
On the technique in general: A western blot detects proteins with antibodies after separation by electrophoresis.

For a further experiment, the system named is HEY cells. The experiment in a line: Colony formation assay, HEY cells. The class given is cell-based, human. As for the experimental part:
MMAE-conjugated 10D7 and IgG1K were prepared as described (Nielsen C F, et al., (2017) Oncotarget. 8(27):44605-24.53) and drug-antibody ratio (DAR) determined by reverse phase LC/MS as reported (Basa L. et al., (2013) Methods Mol Biol. 1045:285-93.) on an ABSCIEX Triple TOF spectrometer (AB SCIEX Framingham, Mass.) coupled to a Shimadzu Nexera 1D UHPLC system (Shimadzu, Rydalmere, Australia). ADC peak identification was performed as reported with DAR determined by peak area integration (Hamblett K J, et al., (2004) Clin Cancer Res. 10(20):7063-70; Yao X, et al., (2015) Breast Cancer Res Treat. 153(1):123-33). Colony-formation assays were performed as described (Crowley L C, et al., (2016) Cold Spring Harb Protoc. 2016(8):pdb.prot087171) on cells (100,000/ml) treated with the indicated concentrations of 10D7, 10D7-MMAE, IgG or IgG-MMAE overnight before being lifted and replated in 24-well plates (200 cells/well). After a defined growth period media was removed and cells gently PBS washed before staining with 0.1% crystal violet (Sigma-Aldrich) in 2% ethanol. After 20 minutes and stained cells were scanned (700 nm) on a LiCOR System (Odyssey V3.0 software) with images analyzed using the ColonyArea ImageJ plugin to quantify colony area and intensity (Guzmán C, et al., (2014) PLoS One. 9(3):e92444.). […]

For the next experiment, the system named is PANC-1 cells. The experiment in a line: Survival assay with cytotoxin-conjugated antibodies, PANC-1. The class given is cell-based, human. The following applies: PANC-1, 1 μg/ml, 12 h treatment then 72 h growth. As to the method:
The relative number of viable cells was then measured by adding the CellTiter AQueous One Solution Reagent to each well and measuring absorbance at 490 nm as described above. […] Cells were imaged by wide-field fluorescence microscopy and the total area of confluence for each cell type was quantified by image analysis using Image J software.

Experiment [2] deals with subcutaneous TKCC05 cells xenografts. The experiment in a line: TKCC05 subcutaneous xenograft, MMAE-conjugated antibodies. In kind it is in vivo, mouse. The conditions noted are these: 5 mg/kg i.v. on day 27 and 41, in comparison with the other treatments. As for the experimental part:
Mouse experiments were approved by the University of Queensland Animal Ethics Committee. PDAC cells (2.5×10^6) were injected subcutaneously into the flanks of NOD.Cg-Prkdcscid Il2rgtm1Wjl/SzJ (NSG) mice (6-8 weeks; Jackson Laboratory, Bar Harbor, Me.). For assays assessing the impact of antibody 10D7 on xenograft growth, two weeks after PDAC cell inoculations, mice (n=6/group) were randomized and treated i.v. every four days with PBS, 10D7 (5 mg/kg) or IgG (5 mg/kg) until the end of the assay. For assays assessing whether 10D7 improves the efficacy of gemcitabine chemotherapy, four weeks after PDAC cell inoculations, mice were randomized and treated i.v. every four days with PBS (n=12), 10D7 (n=12, 5 mg/kg) or IgG (n=12, 5 mg/kg). Half of the mice in each of the three groups also received gemcitabine i.p. treatments (125 mg/kg/week). At the end of the assay tumours were harvested, weighed and processed for assessment of histology and CDCP1 expression by immunohistochemistry or western blot analysis. […] Tumour burden was monitored by calliper measurement and tumour volume calculated as previously described (Feldman J P, Goldwasser R, Mark S, Schwartz J (2009) Journal of Applied Quantitative Methods 4(4):455-462). […]
Finally, the inventors evaluated whether the PDAC targeting ability of antibody 10D7 can be harnessed to effectively deliver the cytotoxin MMAE to PDAC in vivo. […]

B1: 10D7-MMAE (conjugate)
VH: EVQLQQFGAELVKPGASVKISCKASGYSFSDFNIEWLKQSHGKSLEWIGDINPNYDSTNYNQKFKGRATLTVDKSSSTAYMEVRSLTSEDTAVYYCARLGYGYAMDYWGQGTSVTVSS
VL: NIVMTQSPQSMSMSVGERVTLSCKASENVGAYVSWFQQKPDQSPKLLILAASNRYTGVPARFIGSGSATDFTLTISSVQAEDLADYHCGQSYTYPYTFGGGTKLEIKRADAAPTVS
Consider B1, for which the “time to phosphorylation of CDCP1-Y734 and Src-Y416” value in experiment [1] was at most 1 h. For the same molecule, the “half maximum dose required to block colony formation” value with HEY cells was “approximately 0.2 μg/ml”. For the same molecule, the survival of cells entry in the experiment with PANC-1 cells is reported as “about 20%”. In experiment [2], the “survival of xenografted mice” value is reported as “significantly extended survival” and the tumour growth result was “markedly inhibited tumour growth”.
